As usually defined, the EC50 is the concentration at which the effect is half-maximal. A higher EC50 goes with lower potency in that assay.

For test [1], the target named is T1, cyno αvβ6 on 293F:cynoβ6 cells (human;Macaca fascicularis, UniProt P06756 31-1048; A0A2K5TZ36 22-787).
T1 chain 1: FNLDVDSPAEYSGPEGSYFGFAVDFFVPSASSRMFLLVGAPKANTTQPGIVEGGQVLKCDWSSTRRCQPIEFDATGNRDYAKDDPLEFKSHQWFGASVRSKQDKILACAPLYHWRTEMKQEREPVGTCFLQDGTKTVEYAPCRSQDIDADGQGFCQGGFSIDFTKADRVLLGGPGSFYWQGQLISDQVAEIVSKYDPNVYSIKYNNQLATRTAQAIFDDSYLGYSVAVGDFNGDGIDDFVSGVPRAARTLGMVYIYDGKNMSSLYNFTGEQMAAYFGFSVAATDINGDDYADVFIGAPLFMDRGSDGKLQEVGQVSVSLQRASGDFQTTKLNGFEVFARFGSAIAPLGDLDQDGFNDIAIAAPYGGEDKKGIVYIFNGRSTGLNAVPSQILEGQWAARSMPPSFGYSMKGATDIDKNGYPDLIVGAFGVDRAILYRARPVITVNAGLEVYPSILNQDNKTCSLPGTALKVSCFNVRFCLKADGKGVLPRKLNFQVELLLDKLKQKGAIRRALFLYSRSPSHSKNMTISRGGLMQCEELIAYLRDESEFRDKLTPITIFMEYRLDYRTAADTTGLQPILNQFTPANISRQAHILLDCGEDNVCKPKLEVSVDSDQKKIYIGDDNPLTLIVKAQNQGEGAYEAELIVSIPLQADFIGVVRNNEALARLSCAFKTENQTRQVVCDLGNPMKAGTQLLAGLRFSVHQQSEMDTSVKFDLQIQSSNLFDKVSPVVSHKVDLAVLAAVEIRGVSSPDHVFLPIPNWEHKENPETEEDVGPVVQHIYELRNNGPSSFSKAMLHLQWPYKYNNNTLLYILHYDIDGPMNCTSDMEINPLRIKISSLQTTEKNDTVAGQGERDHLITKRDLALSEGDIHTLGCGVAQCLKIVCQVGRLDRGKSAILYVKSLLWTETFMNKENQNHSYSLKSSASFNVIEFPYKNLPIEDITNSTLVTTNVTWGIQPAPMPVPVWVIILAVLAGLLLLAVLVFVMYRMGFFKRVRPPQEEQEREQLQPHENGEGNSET
T1 chain 2: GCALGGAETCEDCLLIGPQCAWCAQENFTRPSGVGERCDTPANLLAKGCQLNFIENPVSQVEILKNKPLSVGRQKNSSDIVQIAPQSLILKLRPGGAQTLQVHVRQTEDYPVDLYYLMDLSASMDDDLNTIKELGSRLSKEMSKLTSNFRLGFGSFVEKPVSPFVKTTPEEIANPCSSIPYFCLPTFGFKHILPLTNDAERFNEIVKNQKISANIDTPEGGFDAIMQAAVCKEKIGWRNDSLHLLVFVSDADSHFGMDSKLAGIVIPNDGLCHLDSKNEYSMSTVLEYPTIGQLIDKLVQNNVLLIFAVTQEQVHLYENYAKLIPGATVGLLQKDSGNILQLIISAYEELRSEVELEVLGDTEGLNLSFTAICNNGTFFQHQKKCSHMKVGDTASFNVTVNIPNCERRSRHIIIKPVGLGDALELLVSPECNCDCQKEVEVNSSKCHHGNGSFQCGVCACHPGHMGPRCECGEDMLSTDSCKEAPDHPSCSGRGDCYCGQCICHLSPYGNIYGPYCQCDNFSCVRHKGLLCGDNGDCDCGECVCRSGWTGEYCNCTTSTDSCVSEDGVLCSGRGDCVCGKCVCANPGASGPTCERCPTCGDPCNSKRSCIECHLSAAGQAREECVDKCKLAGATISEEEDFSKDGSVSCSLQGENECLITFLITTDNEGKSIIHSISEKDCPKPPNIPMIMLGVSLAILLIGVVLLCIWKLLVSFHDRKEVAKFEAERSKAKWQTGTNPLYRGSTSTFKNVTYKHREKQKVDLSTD
Nature of the test: competition binding on 293F cells.

Test [2] has as its target T2, human αvβ6 on 293F:huβ6 cells (human, UniProt P06756 31-1048; P18564 22-788).
T2 chain 1: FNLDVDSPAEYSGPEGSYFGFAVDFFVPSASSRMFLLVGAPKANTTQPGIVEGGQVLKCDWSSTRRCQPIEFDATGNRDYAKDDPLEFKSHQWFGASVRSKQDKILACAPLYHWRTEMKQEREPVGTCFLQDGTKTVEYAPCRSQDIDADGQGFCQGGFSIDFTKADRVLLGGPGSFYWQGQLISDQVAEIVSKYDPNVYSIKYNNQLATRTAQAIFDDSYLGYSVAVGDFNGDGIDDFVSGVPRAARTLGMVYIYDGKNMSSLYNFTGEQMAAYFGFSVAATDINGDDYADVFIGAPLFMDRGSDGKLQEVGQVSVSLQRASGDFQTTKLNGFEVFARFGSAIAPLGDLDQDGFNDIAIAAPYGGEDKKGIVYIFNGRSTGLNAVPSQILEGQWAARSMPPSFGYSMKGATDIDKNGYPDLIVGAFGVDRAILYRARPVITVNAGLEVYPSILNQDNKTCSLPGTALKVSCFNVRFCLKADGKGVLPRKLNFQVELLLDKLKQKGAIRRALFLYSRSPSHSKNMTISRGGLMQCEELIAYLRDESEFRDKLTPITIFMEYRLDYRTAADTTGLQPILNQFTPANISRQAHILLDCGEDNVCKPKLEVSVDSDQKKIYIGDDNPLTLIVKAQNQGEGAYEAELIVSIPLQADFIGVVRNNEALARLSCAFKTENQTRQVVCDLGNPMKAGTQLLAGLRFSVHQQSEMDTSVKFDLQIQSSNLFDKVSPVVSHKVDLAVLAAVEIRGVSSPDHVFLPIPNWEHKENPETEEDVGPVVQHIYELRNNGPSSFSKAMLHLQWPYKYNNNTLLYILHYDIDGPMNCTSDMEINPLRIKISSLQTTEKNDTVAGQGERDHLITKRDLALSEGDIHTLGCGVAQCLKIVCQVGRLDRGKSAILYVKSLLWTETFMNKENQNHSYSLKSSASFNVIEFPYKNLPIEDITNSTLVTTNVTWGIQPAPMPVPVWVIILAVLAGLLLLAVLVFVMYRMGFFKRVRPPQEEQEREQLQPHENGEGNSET
T2 chain 2: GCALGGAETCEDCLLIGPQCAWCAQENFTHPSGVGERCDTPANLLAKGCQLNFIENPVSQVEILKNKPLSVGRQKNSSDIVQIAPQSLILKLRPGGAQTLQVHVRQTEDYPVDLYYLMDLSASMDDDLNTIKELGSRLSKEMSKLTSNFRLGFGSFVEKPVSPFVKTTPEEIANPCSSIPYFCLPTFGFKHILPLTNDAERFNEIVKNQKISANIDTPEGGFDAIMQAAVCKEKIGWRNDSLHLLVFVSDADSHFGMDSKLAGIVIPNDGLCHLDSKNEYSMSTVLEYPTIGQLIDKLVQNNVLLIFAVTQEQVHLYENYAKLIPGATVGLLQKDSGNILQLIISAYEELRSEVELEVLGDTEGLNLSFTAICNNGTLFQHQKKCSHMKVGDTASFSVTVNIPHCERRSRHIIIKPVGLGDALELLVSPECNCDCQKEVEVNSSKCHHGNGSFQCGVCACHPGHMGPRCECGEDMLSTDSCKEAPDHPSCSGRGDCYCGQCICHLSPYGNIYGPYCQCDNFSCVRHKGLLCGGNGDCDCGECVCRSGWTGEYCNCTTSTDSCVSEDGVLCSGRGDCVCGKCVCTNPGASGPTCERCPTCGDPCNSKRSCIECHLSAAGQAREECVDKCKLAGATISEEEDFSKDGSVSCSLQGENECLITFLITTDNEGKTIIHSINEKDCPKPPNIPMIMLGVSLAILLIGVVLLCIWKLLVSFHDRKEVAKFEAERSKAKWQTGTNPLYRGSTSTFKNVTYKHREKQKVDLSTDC
The experiment in a line: competition binding on 293F cells; 2nM m2A2-AF647 competitor.

B1: h2A2 HCLG humanized antibody (antibody, human IgG1, kappa, V domains shown)
VH: QFQLVQSGAEVKKPGASVKVSCKASGYSFTDYNVNWVRQAPGQGLEWIGVINPKYGTTRYNQKFKGRATLTVDKSTSTAYMELSSLRSEDTAVYYCTRGLNAWDYWGQGTLVTVSS
VL: DIQMTQSPSSLSASVGDRVTITCGASENIYGALNWYQQKPGKAPKLLIYGATNLEDGVPSRFSGSGSGRDYTFTISSLQPEDIATYYCQNVLTTPYTFGQGTKLEIKR
notes: Labelled with AlexaFluor-647 in the saturation assay; also called humanized 2A2 HCLG
In the case of B1, the EC50 in test [1] is 3 nM; in test [2], 1 nM.

The values above are taken from patent US20250242041A1 (Seagen, published 2025).
